Test results from patent publication US20200190192A1 (SUTRO BIOPHARMA, published 2020).
Changes are numbered by the printed parent chain.

T1: cynomolgus Tim-3 expressed on CHO cells (cynomolgus monkey)
T1 construct: also called cTim-3; Cyno Tim-3 (CHO)
T1 chain: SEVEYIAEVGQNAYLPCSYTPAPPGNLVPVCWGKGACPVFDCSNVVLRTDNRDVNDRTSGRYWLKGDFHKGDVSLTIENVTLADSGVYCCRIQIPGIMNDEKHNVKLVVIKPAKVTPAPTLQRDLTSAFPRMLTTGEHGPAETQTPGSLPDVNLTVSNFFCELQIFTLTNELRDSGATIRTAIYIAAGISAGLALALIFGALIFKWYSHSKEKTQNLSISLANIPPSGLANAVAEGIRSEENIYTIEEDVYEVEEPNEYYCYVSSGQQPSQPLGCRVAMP

B1: h22E11-VK1-39 × h22E11-VH1-69 (antibody, V domains shown)
VH: QVQLVQSGAEVKKPGSSVKVSCKVSGFSLTSYGVHWVRQAPGQGLEWLVVIWSDGSTTYNQKFQGRVTITKDESTSTVYMELSSLRSEDTAVYYCARQGGYRYDDAMDYWGQGTLVTVSS
VL: DIQLTQSPSSLSASVGDRVTITCKASQSVDYDGNSYVNWYQQKPGKAPKLLIYAASNLESGVPSRFSGSGSGTDFTLTISSLQPEDFATYYCQQSNEDPYTFGQGTKVEIK
notes: Humanized m22E11
B2: h22E11-VK4-1 × h22E11-VH4-30-4 (antibody, V domains shown)
VH: QVQLQESGPGLVKPSQTLSLTCTVSGFSLTSYGVHWIRQPPGKGLEWLVVIWSDGSTTYNPSLKSRVTISKDTSKNQVSLKLSSVTAADTAVYYCARQGGYRYDDAMDYWGQGTLVTVSS
VL: DIVLTQSPDSLAVSLGERATINCKASQSVDYDGNSYVNWYQQKPGQPPKLLIYAASNLESGVPDRFSGSGSGTDFTLTISSLQAEDVAVYYCQQSNEDPYTFGQGTKVEIK
notes: Humanized m22E11
B3: h22E11-VK4-1 × h22E11-VH5-51 (antibody, V domains shown)
VH: EVQLVQSGAEVKKPGESLKISCKVSGFSLTSYGVHWVRQMPGKGLEWLVVIWSDGSTTYNPSFQGQVTISKDKSISTVYLQWSSLKASDTAMYYCARQGGYRYDDAMDYWGQGTLVTVSS
VL: B2 VL
notes: Humanized m22E11
B4: h22E11-VK4-1 × h22E11-5-IgG-HC (antibody, V domains shown)
VH: EVQLVESGGGLVQPGGSLRLSCAVSGFSLTSYGVHWVRQAPGKGLEWLVVIWSDGSTTYNSALKSRFTISKDNAKNSVYLQMNSLRAEDTAVYYCARQGGYRYDDAMDYWGQGTLVTVSS
VL: B2 VL
notes: Humanized m22E11
B5: h22E11-VK3-11 × h22E11-VH1-69 (antibody, V domains shown)
VH: B1 VH
VL: EIVLTQSPATLSLSPGERATLSCKASQSVDYDGNSYVNWYQQKPGQAPRLLIYAASNLESGIPARFSGSGSGTDFTLTISSLEPEDFAVYYCQQSNEDPYTFGQGTKVEIK
notes: Humanized m22E11
B6: h22E11-5-IgG-LC × h22E11-VH1-69 (antibody, V domains shown)
VH: B1 VH
VL: B5 VL with A9G, N38A, A64D, S81R
notes: Humanized m22E11
B7: h22E11-VK3-11 × h22E11-VH3-23 (antibody, V domains shown)
VH: B4 VH with V5L, S61D, A62S, L63V, S65G, A74S, S77T
VL: B5 VL
notes: Humanized m22E11
B8: h22E11-5-IgG-LC × h22E11-VH3-23 (antibody, V domains shown)
VH: B4 VH with V5L, S61D, A62S, L63V, S65G, A74S, S77T
VL: B5 VL with A9G, N38A, A64D, S81R
notes: Humanized m22E11
B9: h22E11-VK3-11 × h22E11-VH4-30-4 (antibody, V domains shown)
VH: B2 VH
VL: B5 VL
notes: Humanized m22E11
B10: h22E11-VK3-11 × h22E11-VH5-51 (antibody, V domains shown)
VH: B3 VH
VL: B5 VL
notes: Humanized m22E11
B11: h22E11-VK1-39 × h22E11-VH3-23 (antibody, V domains shown)
VH: B4 VH with V5L, S61D, A62S, L63V, S65G, A74S, S77T
VL: B1 VL
notes: Humanized m22E11
B12: h22E11-VK1-39 × h22E11-5-IgG-HC (antibody, V domains shown)
VH: B4 VH
VL: B1 VL
notes: Humanized m22E11
B13: h22E11-VK1-39 × h22E11-VH5-51 (antibody, V domains shown)
VH: B3 VH
VL: B1 VL
notes: Humanized m22E11
B14: h22E11-5-IgG-LC × h22E11-VH4-30-4 (antibody, V domains shown)
VH: B2 VH
VL: B5 VL with A9G, N38A, A64D, S81R
notes: Humanized m22E11
B15: h22E11-VK1-39 × h22E11-VH4-30-4 (antibody, V domains shown)
VH: B2 VH
VL: B1 VL
notes: Humanized m22E11
B16: h22E11-5-IgG-LC × h22E11-VH5-51 (antibody, V domains shown)
VH: B3 VH
VL: B5 VL with A9G, N38A, A64D, S81R
notes: Humanized m22E11

target: T2, human Tim-3 expressed on the cell surface (human, UniProt Q8TDQ0 22-301); assay: flow cytometry, activated human CD4+ T cells
T2 construct: also called hTim-3; Human Tim-3 (CHO)

| Kd [nM] | Binder |
| --- | --- |
| 2.6 | B1 |
| 5.7 | B2 |
| 0.6 | B3 |
| 1.4 | B4 |
| 4 | B5 |
| 1.6 | B6 |
| 0.9 | B7 |
| 1.2 | B8 |
| 7.1 | B9 |
| 0.6 | B10 |
| 1.1 | B11 |
| 2.4 | B12 |
| 0.9 | B13 |

target: T2, human Tim-3 expressed on the cell …; assay: flow cytometry, CHO-human Tim-3 cells;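 further: antibodies bound on ice for 60 min, detected by PE anti-human IgG Fc secondary, mean fluorescence intensity fit to one-site specific binding with Hill slope, parental CHO cells as nonspecific control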

| Kd [nM] | Binder |
| --- | --- |
| 0.6 | B1 |
| 1.1 | B2 |
| 0.8 | B3 |
| 0.8 | B4 |
| 1 | B5 |
| 0.9 | B6 |
| 0.7 | B7 |
| 0.8 | B8 |
| 1 | B9 |
| 3.7 | B14 |
| 0.8 | B10 |
| 0.5 | B11 |
| 0.6 | B12 |
| 0.7 | B15 |
| 0.4 | B13 |

target: T3, recombinant human Tim-3-Fc (R&D Systems, 2365-TM) (human, UniProt Q8TDQ0 22-202, biotinylated in the Galectin-9 competition ELISA (sites not given)); assay: SPR Biacore, human Tim-3 Fc; KD estimated;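 on koff: antibodies captured on an anti-FLAG sensor surface, Tim-3-Fc flowed over as analyte at 25 °C in HBS-EP+ buffer, rates fit with a 1:1 Langmuir model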
T3 construct: Bought protein; also called huTim-3-Fc; biotinylated Tim-3-Fc; not shown: Fc of the bought fusion protein

| Kd [nM] | Binder |
| --- | --- |
| 6 | B1 |
| 8.1 | B2 |
| 4.8 | B3 |
| 5.7 | B4 |
| 4.9 | B5 |
| 4.9 | B6 |
| 5.3 | B7 |
| 5.3 | B8 |
| 7.2 | B9 |
| 7.6 | B14 |
| 4.3 | B10 |
| 5 | B16 |
| 5.6 | B11 |
| 6.2 | B12 |
| 9.1 | B15 |
| 5.3 | B13 |

target: T3, recombinant human Tim-3-Fc (R&D …); assay: SPR Biacore, human Tim-3 Fc

| koff [s⁻¹] | Binder |
| --- | --- |
| 0.00094 | B1 |
| 0.00119 | B2 |
| 0.000881 | B3 |
| 0.000973 | B4 |
| 0.000867 | B5 |
| 0.000991 | B6 |
| 0.000934 | B7 |
| 0.000895 | B8 |
| 0.00107 | B9 |
| 0.00117 | B14 |
| 0.000875 | B10 |
| 0.0011 | B16 |
| 0.00094 | B11 |
| 0.00102 | B12 |
| 0.00126 | B15 |
| 0.000947 | B13 |

Target: T1, cynomolgus Tim-3 expressed on CHO cells
Assay: flow cytometry, CHO-cyno Tim-3 cells

| Kd [nM] | Binder |
| --- | --- |
| 1.7 | B1 |
| 5 | B2 |
| 1.9 | B3 |
| 5.3 | B4 |
| 2.8 | B5 |
| 3 | B6 |
| 6.9 | B7 |
| 13.2 | B8 |
| 4.5 | B9 |
| 2.7 | B10 |
| 4.5 | B11 |
| 4.7 | B12 |
| 5.5 | B15 |
| 2.1 | B13 |
